The values below come from patent US20190338038A1 (CELLERANT THERAPEUTICS, published 2019).

Broadly, the EC50 (read off the curve) is the concentration needed to bring the measured effect to its halfway point. The term koff denotes a measure of how fast the partners let go of each other. A higher koff goes with a short-lived complex. In general, kon refers to a measure of how fast the partners come together. A lower kon goes with slow association. In general, Kd refers to the concentration at which binding is half-saturated. A lower Kd goes with tighter binding.

Experiment [1] has as its target T1, human interleukin 1 receptor accessory protein, membrane-bound form on cells (human, UniProt Q9NPH3 21-570).
T1 construct: On IL1-RAP-transfected 293 cells, AML cell lines (EOL-1, HNT-34, OCI-AML2, OCI-AML3), primary AML cells and HEK-Blue IL-1β cells; also called IL1-RAP; receptor IL1-RAP
T1 sequence: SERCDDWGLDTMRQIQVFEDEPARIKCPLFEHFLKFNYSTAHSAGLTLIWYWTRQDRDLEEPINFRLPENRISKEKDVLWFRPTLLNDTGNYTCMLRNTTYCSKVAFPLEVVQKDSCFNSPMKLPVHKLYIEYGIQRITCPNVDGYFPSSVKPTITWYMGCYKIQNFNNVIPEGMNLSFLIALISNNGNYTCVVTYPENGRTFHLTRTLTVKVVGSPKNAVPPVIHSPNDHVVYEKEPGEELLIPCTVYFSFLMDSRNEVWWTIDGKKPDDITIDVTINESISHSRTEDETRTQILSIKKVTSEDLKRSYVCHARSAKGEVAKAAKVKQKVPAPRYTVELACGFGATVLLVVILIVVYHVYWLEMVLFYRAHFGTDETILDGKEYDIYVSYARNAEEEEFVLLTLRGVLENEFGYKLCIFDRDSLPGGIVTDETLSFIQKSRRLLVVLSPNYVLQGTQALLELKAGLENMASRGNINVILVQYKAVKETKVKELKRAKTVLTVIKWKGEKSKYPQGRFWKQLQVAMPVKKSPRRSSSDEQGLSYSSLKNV
Kind of experiment: FACS titration on EOL-1 cells.

The target of experiment [2] is T2, IL1-RAP (antigen of the kinetic measurements of Tables 5A and 5B) (human, UniProt Q9NPH3 21-359, limits assumed).
T2 sequence: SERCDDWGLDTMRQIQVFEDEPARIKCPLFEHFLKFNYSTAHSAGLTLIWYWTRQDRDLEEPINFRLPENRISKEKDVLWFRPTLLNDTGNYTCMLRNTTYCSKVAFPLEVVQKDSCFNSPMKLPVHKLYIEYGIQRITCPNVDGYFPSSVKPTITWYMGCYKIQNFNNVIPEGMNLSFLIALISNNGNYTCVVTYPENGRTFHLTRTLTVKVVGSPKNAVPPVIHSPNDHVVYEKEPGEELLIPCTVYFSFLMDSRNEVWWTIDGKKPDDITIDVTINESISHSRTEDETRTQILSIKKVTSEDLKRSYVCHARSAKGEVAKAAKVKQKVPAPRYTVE
Description: kinetics, Table 5A; method and antigen form not stated.

Experiment [3] concerns the target T2, IL1-RAP (antigen of the kinetic …). Description: kinetics, Table 5B; method and antigen form not stated.
Experiment [4] has the same target. Kind of experiment: kinetics, Table 5A; method and antigen form not stated; Table 5A.
Experiment [5] shares this target. Kind of experiment: kinetics, Table 5B; method and antigen form not stated; Table 5B.
The target of experiment [6] is T1, human interleukin 1 receptor accessory …. Description: FACS on EOL-1 cells, FITC; antibody concentration not given.
Experiment [7] shares this target. Description: FACS titration on EOL-1 cells. This is another data set of the same source.
Experiment [8] has the same target. Kind of experiment: FACS titration on HNT-34 cells.
For experiment [9] the target is unchanged. Kind of experiment: FACS titration on IL1-RAP transfected 293 cells.
The target in experiment [10] is T3, soluble IL1-RAP form (isoform 2) (human, UniProt Q9NPH3 21-350).
T3 construct: Expressed in and purified from 293 cells; also called Q9NPH3-2; soluble form IL1RAP
T3 sequence: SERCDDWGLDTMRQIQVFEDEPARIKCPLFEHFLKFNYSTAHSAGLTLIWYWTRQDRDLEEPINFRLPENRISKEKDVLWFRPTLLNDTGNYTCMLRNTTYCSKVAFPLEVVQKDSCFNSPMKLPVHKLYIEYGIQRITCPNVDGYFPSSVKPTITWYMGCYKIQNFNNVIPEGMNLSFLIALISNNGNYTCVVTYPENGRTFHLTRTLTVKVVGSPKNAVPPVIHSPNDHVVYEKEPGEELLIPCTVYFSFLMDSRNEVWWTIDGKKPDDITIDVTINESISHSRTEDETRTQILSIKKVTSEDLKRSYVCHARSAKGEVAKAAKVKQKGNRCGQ
Kind of experiment: sandwich ELISA: plate coated with goat anti-IL1RAP antibody, then soluble IL1-RAP, then 2H8. How it is done: (§1) The extracellular domain of IL1-RAP (Q9NPH3-4) and soluble IL1-RAP form (Q9NPH3-2) were expressed and purified from 293 cells. Sandwich ELISA was performed. The binding data shown in FIGS. 3A and 3B supports the conclusion that clone 2H8 binds to membrane-bound IL1-RAP better compared to soluble IL1-RAP form.
(An ELISA detects its analyte on a solid surface through an enzyme-linked reagent.)

The target in experiment [11] is T4, his-tagged extracellular domain (ECD) of IL1-RAP (human, UniProt Q9NPH3 21-367).
T4 construct: also called ECD IL1-RAP; IL1-RAP-His fusion protein
T4 sequence: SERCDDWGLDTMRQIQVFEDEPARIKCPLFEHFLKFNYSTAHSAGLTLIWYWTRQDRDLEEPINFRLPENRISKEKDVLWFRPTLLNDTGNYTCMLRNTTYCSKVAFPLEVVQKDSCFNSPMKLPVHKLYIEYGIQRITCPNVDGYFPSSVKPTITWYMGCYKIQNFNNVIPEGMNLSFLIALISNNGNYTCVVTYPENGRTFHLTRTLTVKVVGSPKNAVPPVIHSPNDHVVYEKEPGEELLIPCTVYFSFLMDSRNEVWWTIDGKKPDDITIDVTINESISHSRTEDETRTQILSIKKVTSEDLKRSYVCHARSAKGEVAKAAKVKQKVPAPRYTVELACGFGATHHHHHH
Kind of experiment: sandwich ELISA: plate coated with goat anti-IL1RAP antibody, then extracellular domain of IL1-RAP, then 2H8. How it is done: as §1

B1: chimeric 54.9D7 (antibody, V domains shown)
VH: HVQLQQSGPELVRPGASVKLSCKASGYIFITYWMNWVKQRPGQGLEWVGQIFPASGTTYYNELFEGKATLTVDTSSNTAYMHLTSLTSEDSAVYYCARTDFYRYDGGYALDYWGQGTSLTVSS
VL: DIVLTQSPISLAVFLGQRATISCRASQSVSTSGYSSMHWYQQKAGQPPKLLIKYASDLESGVPVRFSGSGSGTDFILNIHPVEVEDIATYYCHHSWGIPMYTFGGGTKLEIKR
notes: Chimeric antibody; also called Chi54.9D7
Take B1: in experiment [1], the “EC50 (read off the curve)” value is around 200 nM. The koff in experiment [2] and in experiment [3] was below 1e-07 s⁻¹ throughout. For the same molecule, the kon in experiment [2] amounted to 143000 M⁻¹ s⁻¹; in experiment [3], 158000 M⁻¹ s⁻¹. The Kd in experiment [4] and in experiment [5] was below 0.001 nM throughout. Moreover, the MFI in experiment [6] is 32.2.

B2: anti-IL1-RAP antibody clone 2H8 (antibody, V domains shown)
VH: QIQLVQSGPELKKPGETVKISCKASGYTFTDYSMHWVKQAPGKGLKWMGWINTETGEPTYADDFKGRFAFSLETSASTAYLQINNLKNEDTATYFCARYYGYFDYWGQGTTLTVSS
VL: DIVLTQSPASLAVSLGQRATISCRASESVDSYGNSFMHWYQQKPGQPPKLLIYRASNLESGIPARFSGSGSRTDFTLTINPVEADDVATYYCQQSNEDPWTFGGGTKLEIK
notes: Mouse monoclonal antibody; also called 2H8.3
B2: the “EC50 (read off the curve)” value in [7] is around 1 mg/L; in [8] it was around 0.5 mg/L; in experiment [9] it was around 0.9 mg/L; in experiment [10], around 1 mg/L; in [11], around 0.6 mg/L.
